Measurements as given in paper PMC9598763, “WDR73 Depletion Destabilizes PIP4K2C Activity and Impairs Focal Adhesion Formation in Galloway–Mowat Syndrome” (Biology, 2022).

Legend:
[1] = target: T1, PIP4K2A on the HuProt human proteome microarray (human, UniProt P48426 1-406); experiment: peptide or protein array; Cy3-tagged His-WDR73 incubated on the HuProt v4.0 20K Human Proteome Microarray (purified human proteins as N-terminal GST fusions) overnight at 4 °C, washed, scanned; candidates by Z-score > 3; conditions: both partners purified
T1 construct: PIP4K2A, human; spotted on the array as N-terminal GST fusion; source: bought: HuProt v4.0 20K Human Proteome Microarray (CDI Laboratories), purified human proteins; not shown: GST, N-terminal, kept
T1 sequence (looked up): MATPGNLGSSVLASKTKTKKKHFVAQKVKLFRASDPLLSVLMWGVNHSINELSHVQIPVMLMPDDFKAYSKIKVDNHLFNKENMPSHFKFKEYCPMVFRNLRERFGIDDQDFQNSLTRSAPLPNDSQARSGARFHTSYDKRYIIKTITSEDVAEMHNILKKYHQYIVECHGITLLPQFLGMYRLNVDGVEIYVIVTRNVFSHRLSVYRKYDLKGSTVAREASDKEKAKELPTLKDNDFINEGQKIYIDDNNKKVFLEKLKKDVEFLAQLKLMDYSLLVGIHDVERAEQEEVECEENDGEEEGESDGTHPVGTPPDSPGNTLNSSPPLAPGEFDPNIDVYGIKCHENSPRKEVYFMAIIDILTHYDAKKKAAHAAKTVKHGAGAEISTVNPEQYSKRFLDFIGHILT

[2] = target: T2, PIP4K2C on the HuProt human proteome microarray (human, UniProt Q8TBX8 1-421); experiment: as above; conditions: both partners purified
T2 construct: PIP4K2C, phospholipid kinase, human; spotted on the array as N-terminal GST fusion; source: bought: HuProt v4.0 20K Human Proteome Microarray (CDI Laboratories), purified human proteins; not shown: GST, N-terminal, kept
T2 sequence (looked up): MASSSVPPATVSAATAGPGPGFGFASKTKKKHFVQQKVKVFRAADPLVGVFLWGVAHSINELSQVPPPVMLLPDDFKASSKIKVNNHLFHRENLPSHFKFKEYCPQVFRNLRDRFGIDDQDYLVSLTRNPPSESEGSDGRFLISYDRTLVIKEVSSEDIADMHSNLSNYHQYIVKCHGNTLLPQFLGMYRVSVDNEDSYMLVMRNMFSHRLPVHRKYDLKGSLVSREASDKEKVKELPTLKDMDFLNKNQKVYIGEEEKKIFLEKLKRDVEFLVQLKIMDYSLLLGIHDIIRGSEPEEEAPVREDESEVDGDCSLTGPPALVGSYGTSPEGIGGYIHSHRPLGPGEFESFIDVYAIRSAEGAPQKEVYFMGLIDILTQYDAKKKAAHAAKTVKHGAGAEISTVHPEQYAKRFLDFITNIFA

binding result [1]: binds
binding result [2]: binds
B1: Cy3-tagged His-WDR73 (natural protein, human, UniProt Q6P4I2 1-378, looked up)
chain: MDPGDDWLVESLRLYQDFYAFDLSGATRVLEWIDDKGVFVAGYESLKKNEILHLKLPLRLSVKENKGLFPERDFKVRHGGFSDRSIFDLKHVPHTRLLVTSGLPGCYLQVWQVAEDSDVIKAVSTIAVHEKEESLWPRVAVFSTLAPGVLHGARLRSLQVVDLESRKTTYTSDVSDSEELSSLQVLDADTFAFCCASGRLGLVDTRQKWAPLENRSPGPGSGGERWCAEVGSWGQGPGPSIASLGSDGRLCLLDPRDLCHPVSSVQCPVSVPSPDPELLRVTWAPGLKNCLAISGFDGTVQVYDATSWDGTRSQDGTRSQVEPLFTHRGHIFLDGNGMDPAPLVTTHTWHPCRPRTLLSATNDASLHVWDWVDLCAPR
modifications: labeled with Cy3 (CyDye Protein Labelling CY3 MONO 5-PACK, GE)
notes: WDR73 (WD40-repeat-containing protein), human; Probe of the HuProt microarray; also called recombinant His-WDR73 fusion protein; purified human WDR73 protein; source: recombinant, purified by MerryBio Co., Ltd
